Measured values published in patent US20260275312, “CRISPR NUCLEASE POLYPEPTIDES AND GENE EDITING SYSTEMS COMPRISING SUCH” (ARBOR BIOTECHNOLOGIES, INC., published 2026).

Target: T1, Nuclease W S925R/E715R/A65R (synthetic construct, S925R,E715R,A65R)
T1 chain: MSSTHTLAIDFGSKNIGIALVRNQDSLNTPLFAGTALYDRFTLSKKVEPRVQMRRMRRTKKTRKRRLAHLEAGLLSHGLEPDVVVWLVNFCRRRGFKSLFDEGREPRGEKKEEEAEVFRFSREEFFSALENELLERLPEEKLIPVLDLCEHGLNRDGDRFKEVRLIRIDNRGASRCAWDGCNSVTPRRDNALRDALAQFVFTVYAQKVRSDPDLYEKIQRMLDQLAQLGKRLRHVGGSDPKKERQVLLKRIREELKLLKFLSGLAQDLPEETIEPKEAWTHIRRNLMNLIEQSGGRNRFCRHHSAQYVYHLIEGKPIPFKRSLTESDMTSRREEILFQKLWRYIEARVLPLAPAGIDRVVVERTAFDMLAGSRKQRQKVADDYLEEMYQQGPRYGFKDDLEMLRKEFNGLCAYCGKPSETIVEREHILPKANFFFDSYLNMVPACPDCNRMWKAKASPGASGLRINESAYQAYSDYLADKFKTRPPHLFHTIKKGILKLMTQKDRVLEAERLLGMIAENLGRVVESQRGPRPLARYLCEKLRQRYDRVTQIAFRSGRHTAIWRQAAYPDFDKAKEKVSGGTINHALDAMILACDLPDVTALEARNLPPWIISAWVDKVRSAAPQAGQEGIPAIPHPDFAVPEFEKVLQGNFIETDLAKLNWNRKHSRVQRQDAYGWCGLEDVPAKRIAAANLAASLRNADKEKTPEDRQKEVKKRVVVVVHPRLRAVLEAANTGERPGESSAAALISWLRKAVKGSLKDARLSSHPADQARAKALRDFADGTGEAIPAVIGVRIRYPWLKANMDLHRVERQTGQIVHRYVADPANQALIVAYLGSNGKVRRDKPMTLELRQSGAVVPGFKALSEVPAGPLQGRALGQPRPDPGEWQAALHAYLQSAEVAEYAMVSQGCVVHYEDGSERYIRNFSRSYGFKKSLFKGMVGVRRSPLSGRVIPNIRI
Assay: cell_activity; HEK293T; PAM AAA
Details: tags: N-term SV40 NLS, XTEN linker + C-term nucleoplasmin NLS
Protocol: Approximately 16 hours prior to transfection, 25,000 HEK293T cells in DMEM/10% FBS+Pen/Strep (D10 media) were plated into each well of a 96-well plate. On the day of transfection, the cells were 50-90% confluent. For each well to be transfected, a mixture of Lipofectamine 2000™ (ThermoFisher Scientific) and Opti-MEM™ (ThermoFisher Scientific) was prepared and incubated at room temperature for 5 minutes (Solution 1). After incubation, the Lipofectamine 2000™:Opti-MEM™ mixture was added to a separate mixture containing the CRISPR nuclease plasmid (NLS-tagged), RNA guide plasmid, and Opti-MEM™ (Solution 2). In the case of negative controls, the CRISPR nuclease plasmid was excluded. Solutions 1 and 2 were mixed by pipetting up and down, then incubated at room temperature for 25 minutes. Following incubation, the Solution 1 and 2 mixture was added dropwise to each well of a 96-well plate containing the cells. […]
Each Nuclease W variant was cloned as described in Example 2. […] For each target, indel ratios, referring to the percentage of NGS reads comprising indels, were calculated for the reference Nuclease W (SEQ ID NO: 1) and for each Nuclease W variant. The indel ratios shown in Table 5 were calculated as the average of two bioreplicates, each of which contained two technical replicates.

B1: W EMX1-T5 RNA guide ; EMX1-T5 target (W) (ssRNA ; dsDNA)
RNA: UAAACUACAGUGGUGCCUGGGUUUCAGCUACCCUGAGUUUCUCAACUCCGUUGAGACUUCCUCAGGUUCAAGCUGAAAAGAGCAUCUGUCCGGAAGGACCACUCCGGGUUAGGGCAGACCCGGCUCUUGGGCUUCCUUGGUCUUUGACUCUGGAGGAAACCUUCCGGCGUGUCGCAAGACAAGAUGUGAGCCUG
DNA 1: TAAACTACAGTGGTGCCTGG
DNA 2: CCAGGCACCACTGTAGTTTA
binding signal: 4.84 fold indel vs reference
